# Columns and labels:
# [1] = target: human β2-appendage (700–937) used for ITC (human) (UniProt P63010); test: ITC; VP-ITC; 100 mM HEPES, 50 mM NaCl, 2 mM DTT pH 7.4 at 10 °C; peptides or proteins injected from the syringe into the cell
# [2] = target: epsinR peptide; test: ITC; conditions: stoichiometry (1.3)
# Chain of human β2-appendage (700–937) used for ITC (P63010 whole entry Y888V, looked up, tested part not stated): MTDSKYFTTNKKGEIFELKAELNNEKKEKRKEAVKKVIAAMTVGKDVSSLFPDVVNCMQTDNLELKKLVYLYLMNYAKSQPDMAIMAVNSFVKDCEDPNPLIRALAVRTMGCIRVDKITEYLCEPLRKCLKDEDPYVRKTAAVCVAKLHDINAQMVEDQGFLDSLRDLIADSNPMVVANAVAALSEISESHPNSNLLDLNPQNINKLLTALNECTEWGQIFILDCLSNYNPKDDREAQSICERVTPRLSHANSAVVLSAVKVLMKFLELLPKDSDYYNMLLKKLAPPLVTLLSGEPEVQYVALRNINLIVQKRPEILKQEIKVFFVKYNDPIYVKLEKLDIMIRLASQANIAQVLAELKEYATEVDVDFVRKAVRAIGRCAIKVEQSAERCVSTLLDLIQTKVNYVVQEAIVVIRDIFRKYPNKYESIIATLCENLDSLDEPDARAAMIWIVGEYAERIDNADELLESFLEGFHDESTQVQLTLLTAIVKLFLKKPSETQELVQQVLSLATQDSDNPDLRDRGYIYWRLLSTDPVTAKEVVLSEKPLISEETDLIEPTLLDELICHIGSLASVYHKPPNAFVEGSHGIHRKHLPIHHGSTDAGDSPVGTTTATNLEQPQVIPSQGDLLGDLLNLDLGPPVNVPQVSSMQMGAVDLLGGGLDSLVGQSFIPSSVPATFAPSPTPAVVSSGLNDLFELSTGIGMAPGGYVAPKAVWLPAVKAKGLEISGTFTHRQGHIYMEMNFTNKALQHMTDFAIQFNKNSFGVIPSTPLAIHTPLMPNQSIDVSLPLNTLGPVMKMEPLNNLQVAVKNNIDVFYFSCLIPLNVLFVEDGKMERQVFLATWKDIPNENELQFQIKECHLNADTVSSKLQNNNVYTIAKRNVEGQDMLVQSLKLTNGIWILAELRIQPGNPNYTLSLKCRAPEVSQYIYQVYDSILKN
# Chain of human β2-appendage (700–937) used for ITC (human) (P63010 700-937): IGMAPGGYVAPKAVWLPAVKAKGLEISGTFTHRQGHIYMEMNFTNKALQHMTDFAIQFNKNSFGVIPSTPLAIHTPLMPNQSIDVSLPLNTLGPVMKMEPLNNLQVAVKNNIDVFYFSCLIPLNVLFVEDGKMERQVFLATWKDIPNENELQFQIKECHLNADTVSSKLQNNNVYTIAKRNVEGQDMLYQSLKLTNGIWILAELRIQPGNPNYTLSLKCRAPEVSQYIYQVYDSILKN
Kd [1],Kd [2],Substance
80 µM,,epsinR peptide
,77 µM,human β2-appendage (700–937) used for ITC (from UniProt P63010) Y888V
